Experimental data reported in US12605469B2, “Tumor specific antibody conjugates and uses therefor” (The University of North Carolina at Charlotte, priority 2019, dated 2026).
Residue numbers refer to the chain shown, from its start.

Experiments:
KCM lysate = target: T1, KCM lysate (Homo sapiens, UniProt P15941); test: sandwich ELISA of humanized TAB004 antibodies on KCM lysate; type: binding, mouse; settings: compared with chimeric parental antibody
T1 construct: expressed in transfected cells; host or cells: KCM, a primary mouse pancreatic adenocarcinoma line from P48-Cre x LSL-Kras G12D x human MUC1.Tg mice; whole-cell lysate at 10 ug/mL
Experimental: Antigen binding (KCM lysate) to the 9 humanized antibody combinations and the chimeric parental antibody were evaluated by sandwich ELISA. For this, ELISA plates were coated with hybridoma antibody (1 μg/mL) overnight at 4° C. in the dark and then blocked with 2% BSA for 2 hours at room temperature to reduce non-specific binding. KCM lysate (10 μg/mL) was then added and incubated for 2 hours at room temperature. Antibodies were diluted in 5-fold increments for a total of seven data points and were added to the ELISA wells for 2 hours at room temperature. The plate was washed with PBS three times, and then incubated with HRP conjugated goat anti-human IgG antibody for 2 hours. The plate was washed three times with PBS. TMB, the HRP substrate, was added to each well for color development for 5 minutes at room temperature. Equal amount of 1N HC1 stop solution was added to each well to terminate the reaction.

KCM pancreatic cell line = test: binding to KCM pancreatic cell line; type: cell-based, mouse
From the text: FIG. 3 is a schematic (upper left panel) showing an approach for creating a triple transgenic mouse line that expresses the Cre recombinase throughout the pancreas, a mutated K-ras oncogene polypeptide, and a human MUC1 polypeptide. This mouse develops pancreatic adenocarcinoma, cells of which were used to generate the primary tumor cell line KCM (lower panel). The KCM cell line was used to test the binding of an exemplary antibody of the presently disclosed subject matter (denoted in the Figure as “TAB” and in the instant disclosure as “TAB-004”) either alone or conjugated to CpG oligodeoxynucleotides (CpG ODN).
(§1) The TAB-004 antibody alone or conjugated to CpG ODN bound to a tumor cell line (referred to herein as the “KCM” cell line; see FIG. 3) generated from the triple transgenic PDA.MUC1.Tg mice.

KCM tumor = test: in vivo anti-tumor activity against established KCM tumor; design: species or system mouse
Experimental: FIG. 5A is a line graph showing the measured tumor volumes (in mm measured by digital calipers) in mice treated with phosphate-buffered saline (PBS) alone (negative control; filled squares), CpG ODN alone (X's), the unconjugated TAB-004 antibody (open circles), or the TAB-004-CpG ODN conjugate (filled circles). FIG. 5B is a bar graph showing the changes in tumor volumes in mice at 19 and 27 days after the final treatment was administered. […] PBS alone (negative control; white bars); CpG ODN alone (hatched bars); unconjugated TAB-004 antibody (black bars); TAB-004-CpG ODN conjugate (cross-hatched bars). […] The treatment groups and the schedule and dose were as illustrated in FIGS. 5A and 5B. Briefly, 3×10^6 KCM tumor cells were administered subcutaneously into the flank region of mice (n=10 mice) at day 0. At days 4, 10, and 16, 50 μg of a TAB-004-CpG ODN conjugate were administered intratumorally (without adjuvant) to each mouse. The same amounts of antibody were administered to an antibody alone group (unconjugated TAB-004) for comparison. Mice were sacrificed at day 20 and tumors recovered.

KCM tumor cells = test: NK cell specific lysis of tumor cells; type: cell-based, mouse; settings: various E:T ratios
From the text: FIGS. 4A and 4B are graphs showing that an exemplary antibody of the presently disclosed subject matter (TAB-004) enhanced the cytotoxicity of Natural Killer (NK) cells to kill target tumor cells.
as §1

[1] = physical properties of MSN materials (DLS, zeta-potential, TGA, TEM); type: physicochemical
From the text: The MSN conjugates were characterized by dynamic light scattering (DLS), thermogravimetric analysis (TGA), and transmission electron microscopy (TEM). […] DLS results indicated slight aggregation. The surface charges were as expected during the different synthesis steps, with the final TAB-004-MSN neutral surface charge indicating successful functionalization of MSN. The PEG linker was quantified by TGA to be about 6-7% by weight.

T1 sequence (P15941 24-1255): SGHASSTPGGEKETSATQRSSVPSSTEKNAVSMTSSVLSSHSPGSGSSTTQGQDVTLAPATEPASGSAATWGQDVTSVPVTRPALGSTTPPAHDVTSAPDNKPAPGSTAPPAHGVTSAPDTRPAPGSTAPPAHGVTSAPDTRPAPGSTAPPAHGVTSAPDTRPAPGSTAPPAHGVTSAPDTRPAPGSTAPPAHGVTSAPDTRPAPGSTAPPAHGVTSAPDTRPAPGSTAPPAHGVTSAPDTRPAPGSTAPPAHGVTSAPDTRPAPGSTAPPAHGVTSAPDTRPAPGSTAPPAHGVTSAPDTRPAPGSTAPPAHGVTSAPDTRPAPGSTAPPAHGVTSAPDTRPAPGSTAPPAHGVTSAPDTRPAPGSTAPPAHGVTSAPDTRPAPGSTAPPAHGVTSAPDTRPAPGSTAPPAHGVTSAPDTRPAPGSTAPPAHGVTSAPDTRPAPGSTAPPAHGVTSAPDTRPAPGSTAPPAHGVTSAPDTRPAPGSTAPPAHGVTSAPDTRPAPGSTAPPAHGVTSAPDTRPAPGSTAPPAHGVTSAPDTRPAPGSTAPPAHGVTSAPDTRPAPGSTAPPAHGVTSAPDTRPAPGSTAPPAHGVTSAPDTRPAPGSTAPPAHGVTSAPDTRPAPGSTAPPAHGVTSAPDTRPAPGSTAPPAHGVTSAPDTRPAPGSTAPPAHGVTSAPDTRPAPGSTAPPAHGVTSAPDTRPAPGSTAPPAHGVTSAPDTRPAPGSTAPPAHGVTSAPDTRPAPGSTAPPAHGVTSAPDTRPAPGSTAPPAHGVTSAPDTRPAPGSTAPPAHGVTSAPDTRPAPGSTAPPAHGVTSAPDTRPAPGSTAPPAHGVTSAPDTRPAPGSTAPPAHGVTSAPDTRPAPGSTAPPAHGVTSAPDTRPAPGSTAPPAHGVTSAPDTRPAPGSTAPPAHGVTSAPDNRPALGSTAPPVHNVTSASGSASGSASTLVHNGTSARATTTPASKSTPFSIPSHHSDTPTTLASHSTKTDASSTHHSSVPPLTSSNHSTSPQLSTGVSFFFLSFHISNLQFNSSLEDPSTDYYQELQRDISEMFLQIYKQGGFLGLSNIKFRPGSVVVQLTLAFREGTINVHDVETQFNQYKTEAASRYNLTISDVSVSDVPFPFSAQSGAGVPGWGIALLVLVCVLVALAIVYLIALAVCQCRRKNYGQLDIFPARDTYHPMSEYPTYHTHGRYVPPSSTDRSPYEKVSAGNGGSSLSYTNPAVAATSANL

B1: Humanized HC3 + LC2: heavy chain H6247, light chain L6246 (antibody)
heavy: EVQLVQSGAEVKKPGASVKVSCKASGYTFTNYWMHWVRQAPGQGLEWMGYINPSSGYTQYNQKFQGWVTMTADTSISTAYMELSRLRSDDTAVYYCSTYYGDYLFPYWGQGTLVTVSSASTKGPSVFPLAPCSRSTSESTAALGCLVKDYFPEPVTVSWNSGALTSGVHTFPAVLQSSGLYSLSSVVTVPSSNFGTQTYTCNVDHKPSNTKVDKTVERKCCVECPPCPAPPVAGPSVFLFPPKPKDTLMISRTPEVTCVVVDVSHEDPEVQFNWYVDGVEVHNAKTKPREEQFNSTFRVVSVLTVVHQDWLNGKEYKCKVSNKGLPAPIEKTISKTKGQPREPQVYTLPPSREEMTKNQVSLTCLVKGFYPSDIAVEWESNGQPENNYKTTPPMLDSDGSFFLYSKLTVDKSRWQQGNVFSCSVMHEALHNHYTQKSLSLSPG
light: DVVMTQSPLSLPVTLGQPASISCRSSQDIVYGNGNTYLEWYQQRPGQSPRLLIYKVSNRFSGVPDRFSGSGSGTDFTLKISRVEAEDVGVYYCFQGSHVPYTFGQGTKLEIKRTVAAPSVFIFPPSDEQLKSGTASVVCLLNNFYPREAKVQWKVDNALQSGNSQESVTEQDSKDSTYSLSSTLTLSKADYEKHKVYACEVTHQGLSSPVTKSFNRGEC
KCM lysate
  binding by ELISA: retained binding similar to the chimeric parental antibody

B2: Humanized HC3 + LC3: heavy chain H6247, light chain L6247 (antibody)
heavy: B1 heavy
light: B1 light with V2I, M4L, R66S, K79T, V90I, Q105E
KCM lysate
  binding by ELISA: retained binding similar to the chimeric parental antibody

B3: TAB-004-CpG ODN conjugate (conjugate)
VH: EVQLQQSGGERATPGASVKMSCKTSGYTFTNYWMHWVKQRPGQGLEWIGYINPSSGYTQYNQKFKDKATLTADKSSSTAYIQLSSLTSEDSAVYYCSTYYGDYLFPYWGQGTLVTVSA
VL: DVLMTQTPLSLPVSLGDQASISCRSSQDIVYGNGNTYLEWYLQKPGQSPKLLIYKVSNRFSGVPDRFSGSGSGTDFTLKISRVEAEDLGVYYCFQGSHVPYTFGGGTKLEIKR
KCM pancreatic cell line
  binding to KCM cell line: bound to the KCM pancreatic cell line with equal affinity
KCM tumor; 50 μg intratumorally at days 4, 10, and 16
  growth of established tumor: completely stopped the growth of an established tumor leading to complete eradication
KCM tumor; compared to control mice
  tumor volumes at 19 and 27 days post-treatment: had not increased
KCM tumor; mouse, in vivo
  tumor regrowth after cessation of treatment: did not grow back the tumors
KCM tumor cells
  specific lysis of tumor cells by NK cells: further enhanced specific lysis of tumor cells

B4: TAB-004-MSN (conjugate)
VH: B3 VH
VL: B3 VL
[1]
  PDI: 0.35
[1]; determined in 1 mM PBS, pH 7.4
  Size (nm): 342.0 nm
  Zeta-potential (mV): −5.6 ± 0.8 mV
